Reference: PMC7367873, “Dissecting the sequence determinants for dephosphorylation by the catalytic subunits of phosphatases PP1 and PP2A” (Nature Communications, 2020)

B1: UBAP2L (protein, UniProt Q14157 1-1087, looked up)
Ubiquitin-associated protein …: MMTSVGTNRARGNWEQPQNQNQTQHKQRPQATAEQIRLAQMISDHNDADFEEKVKQLIDITGKNQDECVIALHDCNGDVNRAINVLLEGNPDTHSWEMVGKKKGVSGQKDGGQTESNEEGKENRDRDRDYSRRRGGPPRRGRGASRGREFRGQENGLDGTKSGGPSGRGTERGRRGRGRGRGGSGRRGGRFSAQGMGTFNPADYAEPANTDDNYGNSSGNTWNNTGHFEPDDGTSAWRTATEEWGTEDWNEDLSETKIFTASNVSSVPLPAENVTITAGQRIDLAVLLGKTPSTMENDSSNLDPSQAPSLAQPLVFSNSKQTAISQPASGNTFSHHSMVSMLGKGFGDVGEAKGGSTTGSQFLEQFKTAQALAQLAAQHSQSGSTTTSSWDMGSTTQSPSLVQYDLKNPSDSAVHSPFTKRQAFTPSSTMMEVFLQEKSPAVATSTAAPPPPSSPLPSKSTSAPQMSPGSSDNQSSSPQPAQQKLKQQKKKASLTSKIPALAVEMPGSADISGLNLQFGALQFGSEPVLSDYESTPTTSASSSQAPSSLYTSTASESSSTISSNQSQESGYQSGPIQSTTYTSQNNAQGPLYEQRSTQTRRYPSSISSSPQKDLTQAKNGFSSVQATQLQTTQSVEGATGSAVKSDSPSTSSIPPLNETVSAASLLTTTNQHSSSLGGLSHSEEIPNTTTTQHSSTLSTQQNTLSSSTSSGRTSTSTLLHTSVESEANLHSSSSTFSTTSSTVSAPPPVVSVSSSLNSGSSLGLSLGSNSTVTASTRSSVATTSGKAPPNLPPGVPPLLPNPYIMAPGLLHAYPPQVYGYDDLQMLQTRFPLDYYSIPFPTPTTPLTGRDGSLASNPYSGDLTKFGRGDASSPAPATTLAQPQQNQTQTHHTTQQTFLNPALPPGYSYTSLPYYTGVPGLPSTFQYGPAVFPVAPTSSKQHGVNVSVNASATPFQQPSGYGSHGYNTGVSVTSSNTGVPDISGSVYSKTQQSFEKQGFHSGTPAASFNLPSALGSGGPINPATAAAYPPAPFMHILTPHQQPHSQILHHHLQQDGQTGSGQRSQTSSIPQKPQTNKSAYNSYSWGAN
B2: LRRC47 (protein, UniProt Q8N1G4 2-583, looked up)
Leucine-rich …: AAAAVSESWPELELAERERRRELLLTGPGLEERVRAAGGQLPPRLFTLPLLHYLEVSGCGSLRAPGPGLAQGLPQLHSLVLRRNALGPGLSPELGPLPALRVLDLSGNALEALPPGQGLGPAEPPGLPQLQSLNLSGNRLRELPADLARCAPRLQSLNLTGNCLDSFPAELFRPGALPLLSELAAADNCLRELSPDIAHLASLKTLDLSNNQLSEIPAELADCPKLKEINFRGNKLRDKRLEKMVSGCQTRSILEYLRVGGRGGGKGKGRAEGSEKEESRRKRRERKQRREGGDGEEQDVGDAGRLLLRVLHVSENPVPLTVRVSPEVRDVRPYIVGAVVRGMDLQPGNALKRFLTSQTKLHEDLCEKRTAATLATHELRAVKGPLLYCARPPQDLKIVPLGRKEAKAKELVRQLQLEAEEQRKQKKRQSVSGLHRYLHLLDGNENYPCLVDADGDVISFPPITNSEKTKVKKTTSDLFLEVTSATSLQICKDVMDALILKMAEMKKYTLENKEEGSLSDTEADAVSGQLPDPTTNPSAGKDGPSLLVVEQVRVVDLEGSLKVVYPSKADLATAPPHVTVVR
B3: PNPLA6 (protein, UniProt Q8IY17 1-1375, looked up)
Patatin-like phospholipase …: MEAPLQTGMMGTSSHGLATNSSGAKVAERDGFQDVLAPGEGSAGRICGAQPVPFVPQVLGVMIGAGVAVVVTAVLILLVVRRLRVPKTPAPDGPRYRFRKRDKVLFYGRKIMRKVSQSTSSLVDTSVSATSRPRMRKKLKMLNIAKKILRIQKETPTLQRKEPPPAVLEADLTEGDLANSHLPSEVLYMLKNVRVLGHFEKPLFLELCRHMVFQRLGQGDYVFRPGQPDASIYVVQDGLLELCLPGPDGKECVVKEVVPGDSVNSLLSILDVITGHQHPQRTVSARAARDSTVLRLPVEAFSAVFTKYPESLVRVVQIIMVRLQRVTFLALHNYLGLTNELFSHEIQPLRLFPSPGLPTRTSPVRGSKRMVSTSATDEPRETPGRPPDPTGAPLPGPTGDPVKPTSLETPSAPLLSRCVSMPGDISGLQGGPRSDFDMAYERGRISVSLQEEASGGSLAAPARTPTQEPREQPAGACEYSYCEDESATGGCPFGPYQGRQTSSIFEAAKQELAKLMRIEDPSLLNSRVLLHHAKAGTIIARQGDQDVSLHFVLWGCLHVYQRMIDKAEDVCLFVAQPGELVGQLAVLTGEPLIFTLRAQRDCTFLRISKSDFYEIMRAQPSVVLSAAHTVAARMSPFVRQMDFAIDWTAVEAGRALYRQGDRSDCTYIVLNGRLRSVIQRGSGKKELVGEYGRGDLIGVVEALTRQPRATTVHAVRDTELAKLPEGTLGHIKRRYPQVVTRLIHLLSQKILGNLQQLQGPFPAGSGLGVPPHSELTNPASNLATVAILPVCAEVPMVAFTLELQHALQAIGPTLLLNSDIIRARLGASALDSIQEFRLSGWLAQQEDAHRIVLYQTDASLTPWTVRCLRQADCILIVGLGDQEPTLGQLEQMLENTAVRALKQLVLLHREEGAGPTRTVEWLNMRSWCSGHLHLRCPRRLFSRRSPAKLHELYEKVFSRRADRHSDFSRLARVLTGNTIALVLGGGGARGCSHIGVLKALEEAGVPVDLVGGTSIGSFIGALYAEERSASRTKQRAREWAKSMTSVLEPVLDLTYPVTSMFTGSAFNRSIHRVFQDKQIEDLWLPYFNVTTDITASAMRVHKDGSLWRYVRASMTLSGYLPPLCDPKDGHLLMDGGYINNLPADIARSMGAKTVIAIDVGSQDETDLSTYGDSLSGWWLLWKRLNPWADKVKVPDMAEIQSRLAYVSCVRQLEVVKSSSYCEYLRPPIDCFKTMDFGKFDQIYDVGYQYGKAVFGGWSRGNVIEKMLTDRRSTDLNESRRADVLAFPSSGFTDLAEIVSRIEPPTSYVSDGCADGEESDCLTEYEEDAGPDCSRDEGGSPEGASPSTASEMEEEKSILRQRRCLPQEPPGSATDA
B4: MOV10 (protein, UniProt Q9HCE1 1-1003, looked up)
Helicase MOV-10: MPSKFSCRQLREAGQCFESFLVVRGLDMETDRERLRTIYNRDFKISFGTPAPGFSSMLYGMKIANLAYVTKTRVRFFRLDRWADVRFPEKRRMKLGSDISKHHKSLLAKIFYDRAEYLHGKHGVDVEVQGPHEARDGQLLIRLDLNRKEVLTLRLRNGGTQSVTLTHLFPLCRTPQFAFYNEDQELPCPLGPGECYELHVHCKTSFVGYFPATVLWELLGPGESGSEGAGTFYIARFLAAVAHSPLAAQLKPMTPFKRTRITGNPVVTNRIEEGERPDRAKGYDLELSMALGTYYPPPRLRQLLPMLLQGTSIFTAPKEIAEIKAQLETALKWRNYEVKLRLLLHLEELQMEHDIRHYDLESVPMTWDPVDQNPRLLTLEVPGVTESRPSVLRGDHLFALLSSETHQEDPITYKGFVHKVELDRVKLSFSMSLLSRFVDGLTFKVNFTFNRQPLRVQHRALELTGRWLLWPMLFPVAPRDVPLLPSDVKLKLYDRSLESNPEQLQAMRHIVTGTTRPAPYIIFGPPGTGKTVTLVEAIKQVVKHLPKAHILACAPSNSGADLLCQRLRVHLPSSIYRLLAPSRDIRMVPEDIKPCCNWDAKKGEYVFPAKKKLQEYRVLITTLITAGRLVSAQFPIDHFTHIFIDEAGHCMEPESLVAIAGLMEVKETGDPGGQLVLAGDPRQLGPVLRSPLTQKHGLGYSLLERLLTYNSLYKKGPDGYDPQFITKLLRNYRSHPTILDIPNQLYYEGELQACADVVDRERFCRWAGLPRQGFPIIFHGVMGKDEREGNSPSFFNPEEAATVTSYLKLLLAPSSKKGKARLSPRSVGVISPYRKQVEKIRYCITKLDRELRGLDDIKDLKVGSVEEFQGQERSVILISTVRSSQSFVQLDLDFNLGFLKNPKRFNVAVTRAKALLIIVGNPLLLGHDPDWKVFLEFCKENGGYTGCPFPAKLDLQQGQNLLQGLSKLSPSTSGPHSHDYLPQEREGEGGLSLQVEPEWRNEL
B5: CAV1 (protein, UniProt Q03135 2-178, looked up)
Caveolin-1: SGGKYVDSEGHLYTVPIREQGNIYKPNNKAMADELSEKQVYDAHTKEIDLVNRDPKHLNDDVVKIDFEDVIAEPEGTHSFDGIWKASFTTFTVTKYWFYRLLSALFGIPMALIWGIYFAILSFLHIWAVVPCIKSFLIEIQCISRVYSIYVHTVCDPLFEAVGKIFSNVRINLQKEI

How the values were obtained:
[1] = tested on: GFP-14-3-3β and its binding proteins; assay: GFP-14-3-3β co-IP with LC-MS/MS label-free quantification, untreated versus PP1c-treated; set-up: species or system human; conditions: PP1 vs untreated; LFQ intensities; 3 replicates each
GFP-14-3-3β = GFP-14-3-3β co-IP with LC-MS/MS, untreated GFP-14-3-3β versus GFP control (14-3-3 interactome); format: binding, human; conditions: untreated vs GFP; LFQ intensities; 3 replicates each

| Molecule | Difference (log2), PP1 vs untreated [1] | Difference (log2), untreated vs GFP (GFP-14-3-3β) |
| --- | --- | --- |
| B1 | 0.7375 log2 | -0.6949 log2 |
| B2 | 0.6799 log2 | 1.1154 log2 |
| B3 | 0.7127 log2 | 1.692 log2 |
| B4 | 0.6679 log2 | 0.6155 log2 |
| B5 | 0.6719 log2 | 0.3485 log2 |
